The sequences below were run on Escherichia coli TOP10 (assay: shrunken log2 fold change of peptide-encoding DNA abundance (4.5 h post-induction vs induction); higher = less antimicrobial activity (less host growth inhibition)). Settings: time post-induction: 4.5 h; library: site-saturation at positions 5, 18, 19, 20.
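Further: peptides expressed intracellularly from a pBAD plasmid library in pooled LB shake-flask culture, induced with 0.3% L-arabinose, DNA abundance read by NGS, three biological replicates, DESeq2 with apeglm shrinkage.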

| Sequence | shrunken log2 fold change |
| --- | --- |
| RRIRSRPPRLPRPRPRPSYAPRP | -0.835 |
| RRIRCRPPRLPRPRPRPQYKPRP | -0.991 |
| RRIRCRPPRLPRPRPRPWTTPRP | -0.138 |
| RRIRSRPPRLPRPRPRPMSWPRP | 0.0314 |
| RRIRIRPPRLPRPRPRPWMVPRP | -0.619 |
| RRIRQRPPRLPRPRPRPIHAPRP | -0.0062 |
| RRIRARPPRLPRPRPRPAKFPRP | 0.168 |
| RRIRFRPPRLPRPRPRPIGQPRP | 0.00854 |
| RRIRHRPPRLPRPRPRPYMKPRP | -0.541 |
| RRIRWRPPRLPRPRPRPKAAPRP | 0.338 |
| RRIRSRPPRLPRPRPRPPQSPRP | 0.373 |
| RRIRARPPRLPRPRPRPFCIPRP | -0.0716 |
| RRIRNRPPRLPRPRPRPQHAPRP | -0.0717 |
| RRIRPRPPRLPRPRPRPGEMPRP | 0.294 |
| RRIRERPPRLPRPRPRPFTSPRP | -0.209 |
| RRIRPRPPRLPRPRPRPRKYPRP | -0.352 |
| RRIRIRPPRLPRPRPRPAFRPRP | 2.17 |
| RRIRYRPPRLPRPRPRPSECPRP | -0.347 |
| RRIRGRPPRLPRPRPRPIPGPRP | 0.107 |
| RRIRMRPPRLPRPRPRPKRMPRP | 1.06 |
| RRIRFRPPRLPRPRPRPDYRPRP | -0.0359 |
| RRIRERPPRLPRPRPRPCFVPRP | -0.151 |
| RRIRRRPPRLPRPRPRPTQIPRP | -0.0829 |
| RRIRDRPPRLPRPRPRPKIYPRP | -0.684 |
| RRIRARPPRLPRPRPRPQSAPRP | 0.153 |

| Sequence | shrunken log2 fold change |
| --- | --- |
| RRIRRRPPRLPRPRPRPTPYPRP | 0.545 |
| RRIRSRPPRLPRPRPRPGQPPRP | 0.214 |
| RRIRKRPPRLPRPRPRPYSQPRP | 0.0349 |
| RRIRVRPPRLPRPRPRPWWQPRP | -0.201 |
| RRIRSRPPRLPRPRPRPMNYPRP | -0.162 |
| RRIRTRPPRLPRPRPRPMGGPRP | -0.0576 |
| RRIRDRPPRLPRPRPRPTHTPRP | -0.311 |
| RRIRYRPPRLPRPRPRPVREPRP | 0.484 |
| RRIRLRPPRLPRPRPRPPDIPRP | -0.0356 |
| RRIRARPPRLPRPRPRPEFFPRP | 0.33 |
| RRIRIRPPRLPRPRPRPEQPPRP | 0.307 |
| RRIRWRPPRLPRPRPRPGAYPRP | 0.109 |
| RRIRNRPPRLPRPRPRPSSEPRP | -0.214 |
| RRIRHRPPRLPRPRPRPKPRPRP | 0.177 |
| RRIRQRPPRLPRPRPRPSIYPRP | -0.988 |
| RRIRHRPPRLPRPRPRPTYTPRP | -0.00607 |
| RRIRCRPPRLPRPRPRPLSHPRP | -0.432 |
| RRIRFRPPRLPRPRPRPLFPPRP | -0.23 |
| RRIRSRPPRLPRPRPRPHSAPRP | -0.891 |
| RRIRKRPPRLPRPRPRPHNRPRP | -0.137 |
| RRIRNRPPRLPRPRPRPLALPRP | -0.239 |
| RRIRGRPPRLPRPRPRPHEFPRP | 0.144 |
| RRIRRRPPRLPRPRPRPQKDPRP | -0.151 |
| RRIRVRPPRLPRPRPRPHVNPRP | -0.554 |
| RRIRERPPRLPRPRPRPSLVPRP | -0.0847 |

| Sequence | shrunken log2 fold change |
| --- | --- |
| RRIRPRPPRLPRPRPRPAACPRP | 0.103 |
| RRIRGRPPRLPRPRPRPPKFPRP | 0.0991 |
| RRIRQRPPRLPRPRPRPSNSPRP | -0.294 |
| RRIRNRPPRLPRPRPRPCNAPRP | -0.0514 |
| RRIRARPPRLPRPRPRPCPDPRP | -0.161 |
| RRIRWRPPRLPRPRPRPILNPRP | -0.362 |
| RRIRQRPPRLPRPRPRPHVYPRP | -0.414 |
| RRIRQRPPRLPRPRPRPMIRPRP | -0.0156 |
| RRIRKRPPRLPRPRPRPYNEPRP | -0.254 |
| RRIRYRPPRLPRPRPRPISSPRP | -0.262 |
| RRIRQRPPRLPRPRPRPMYDPRP | -0.0385 |
| RRIRTRPPRLPRPRPRPDSWPRP | -0.595 |
| RRIRKRPPRLPRPRPRPCCMPRP | 0.103 |
| RRIRNRPPRLPRPRPRPGLAPRP | 0.415 |
| RRIRWRPPRLPRPRPRPFDWPRP | 0.344 |
| RRIRERPPRLPRPRPRPEAQPRP | 0.227 |
| RRIRIRPPRLPRPRPRPPMRPRP | 0.591 |
| RRIRFRPPRLPRPRPRPMCFPRP | -0.256 |
| RRIRHRPPRLPRPRPRPPNPPRP | 0.238 |
| RRIRMRPPRLPRPRPRPAYHPRP | -0.157 |
| RRIRRRPPRLPRPRPRPMAIPRP | 0.202 |
| RRIRDRPPRLPRPRPRPQKGPRP | 0.00967 |
| RRIRSRPPRLPRPRPRPIGYPRP | 0.0746 |
| RRIRARPPRLPRPRPRPRLLPRP | 0.526 |
| RRIRIRPPRLPRPRPRPKPKPRP | 0.161 |

| Sequence | shrunken log2 fold change |
| --- | --- |
| RRIRDRPPRLPRPRPRPKIMPRP | 0.199 |
| RRIRWRPPRLPRPRPRPSCLPRP | -0.0337 |
| RRIRERPPRLPRPRPRPNMSPRP | -0.179 |
| RRIRVRPPRLPRPRPRPSWCPRP | 0.123 |
| RRIRVRPPRLPRPRPRPGFVPRP | 0.0922 |
| RRIRVRPPRLPRPRPRPFVQPRP | -0.0696 |
| RRIRWRPPRLPRPRPRPSRSPRP | 0.0592 |
| RRIRDRPPRLPRPRPRPVEMPRP | -0.0847 |
| RRIRERPPRLPRPRPRPCHKPRP | -0.154 |
| RRIRGRPPRLPRPRPRPGYQPRP | -0.0619 |
| RRIRNRPPRLPRPRPRPEVCPRP | -0.049 |
| RRIRDRPPRLPRPRPRPQIGPRP | -0.00672 |
| RRIRHRPPRLPRPRPRPIYWPRP | -0.181 |
| RRIRSRPPRLPRPRPRPFKSPRP | 0.0547 |
| RRIRVRPPRLPRPRPRPCFNPRP | -0.421 |
| RRIRPRPPRLPRPRPRPAAAPRP | 0.56 |
| RRIRARPPRLPRPRPRPNYNPRP | -0.556 |
| RRIRIRPPRLPRPRPRPTLCPRP | 0.0503 |
| RRIRARPPRLPRPRPRPCAGPRP | 0.477 |
| RRIRWRPPRLPRPRPRPFVRPRP | -0.127 |
| RRIRKRPPRLPRPRPRPFNVPRP | -0.172 |
| RRIRKRPPRLPRPRPRPAYRPRP | 0.0954 |
| RRIRKRPPRLPRPRPRPEVDPRP | 3.04 |
| RRIRKRPPRLPRPRPRPHGWPRP | 0.865 |
| RRIRCRPPRLPRPRPRPAQSPRP | 0.345 |

| Sequence | shrunken log2 fold change |
| --- | --- |
| RRIRFRPPRLPRPRPRPAQNPRP | 0.348 |
| RRIRERPPRLPRPRPRPWGRPRP | 0.268 |
| RRIRMRPPRLPRPRPRPMIIPRP | -0.117 |
| RRIRRRPPRLPRPRPRPDLDPRP | 0.67 |
| RRIRTRPPRLPRPRPRPRCVPRP | -0.0783 |
| RRIRARPPRLPRPRPRPNCSPRP | 0.179 |
| RRIRWRPPRLPRPRPRPRWYPRP | -0.0387 |
| RRIRWRPPRLPRPRPRPLKLPRP | -0.225 |
| RRIRLRPPRLPRPRPRPPQQPRP | 0.313 |
| RRIRFRPPRLPRPRPRPENRPRP | -0.0215 |
| RRIRGRPPRLPRPRPRPTIAPRP | 0.895 |
| RRIRLRPPRLPRPRPRPGHTPRP | 0.183 |
| RRIRQRPPRLPRPRPRPCVAPRP | 0.317 |
| RRIRKRPPRLPRPRPRPLIPPRP | -0.000217 |
| RRIRFRPPRLPRPRPRPQDLPRP | -0.0337 |
| RRIRLRPPRLPRPRPRPRPAPRP | 0.454 |
| RRIRLRPPRLPRPRPRPPIVPRP | -0.531 |
| RRIRRRPPRLPRPRPRPDYPPRP | 0.0596 |
| RRIRMRPPRLPRPRPRPIDEPRP | -0.0525 |
| RRIRSRPPRLPRPRPRPMARPRP | 0.101 |
| RRIRMRPPRLPRPRPRPGKRPRP | 0.078 |
| RRIRMRPPRLPRPRPRPSDTPRP | 0.232 |
| RRIRHRPPRLPRPRPRPDSGPRP | -0.0385 |
| RRIRWRPPRLPRPRPRPQWLPRP | 0.275 |
| RRIRFRPPRLPRPRPRPPRCPRP | 0.612 |

| Sequence | shrunken log2 fold change |
| --- | --- |
| RRIRYRPPRLPRPRPRPDMEPRP | -0.0135 |
| RRIRPRPPRLPRPRPRPPQNPRP | 0.361 |
| RRIRRRPPRLPRPRPRPYKLPRP | -0.669 |
| RRIRQRPPRLPRPRPRPYVCPRP | -0.0671 |
| RRIRNRPPRLPRPRPRPYQDPRP | -0.064 |
| RRIRVRPPRLPRPRPRPVGRPRP | 0.542 |
| RRIRVRPPRLPRPRPRPNRLPRP | 0.0105 |
| RRIRLRPPRLPRPRPRPAKSPRP | -0.0164 |
| RRIRYRPPRLPRPRPRPWVRPRP | -0.108 |
| RRIRHRPPRLPRPRPRPNLIPRP | -0.00121 |
| RRIRNRPPRLPRPRPRPCVFPRP | -0.162 |
| RRIRDRPPRLPRPRPRPCMHPRP | 0.175 |
| RRIRIRPPRLPRPRPRPGRQPRP | 0.172 |
| RRIRWRPPRLPRPRPRPYPPPRP | -0.332 |
| RRIRVRPPRLPRPRPRPLVTPRP | -0.348 |
| RRIRHRPPRLPRPRPRPRGRPRP | -0.0974 |
| RRIRFRPPRLPRPRPRPEIRPRP | 0.0106 |
| RRIRHRPPRLPRPRPRPMRCPRP | 0.309 |
| RRIRDRPPRLPRPRPRPAWVPRP | 0.103 |
| RRIRIRPPRLPRPRPRPHAKPRP | -0.348 |
| RRIRLRPPRLPRPRPRPQMWPRP | 0.0549 |
| RRIRKRPPRLPRPRPRPDAVPRP | 0.698 |
| RRIRCRPPRLPRPRPRPTGMPRP | -0.013 |
| RRIRVRPPRLPRPRPRPCRQPRP | -0.0134 |
| RRIRNRPPRLPRPRPRPTMGPRP | -0.0468 |
